Measurements as given in the RNAGym collection of RNA variant scans (doi:10.1073/pnas.2313332121).

B1: TPR t1 (parent)
chain: GACCAAUCUGCCCUCAGAGCUCGAGAACAUCUUCGGAUGCAGAGGAGGCAGGCUUCGGUGGCGCGAUAGCGCCAACGUCCUCAACCUCCAAUGCAUCCCACCACAUGAUGAUGCCUGAAGAGCCUUGGUUUUUUG

Variants of: B1
Assay: polymerase ribozyme fitness, log enrichment relative to wild type (log ratio); higher = more active; in vitro selection for triplet polymerase activity
How it was run: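 Each subunit of a heterodimeric triplet polymerase ribozyme was represented by a PCR-built, transcribed mutant library that underwent triplicate single-round in vitro selection with frozen incubation at −7 °C. Extended constructs were recovered by gel excision, streptavidin-bead capture and RT-PCR, and Illumina sequencing of input and output libraries kept genotypes with ≥10 input reads and ≥1 read per output. Fitness is the logarithm of genotype enrichment relative to wild-type enrichment, from inverse-variance-weighted replicate averages, with a logarithm base of 2.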

Row | Variant | polymerase ribozyme fitness (log ratio)
1 | U78G A91C U92G | -3.13
2 | C4A G120U | -1.6
3 | C40A A43U G44C G71U C82A | -4.65
4 | G57A G61A C104U | -0.114
5 | C56G A66G C94A | -2.49
6 | C70A C72G C102A C104A | -6.86
7 | G61C G120A | 0.0588
8 | U55A C73U A83G | -1.24
9 | C12U G39C C64U A84U | -0.905
10 | C64U C89G A91U C97U C115U | -2.63
11 | C12U C70U U129C | -0.46
12 | G44A A46U G47C A74G G93A | -3.83
13 | C13G C22A G45U G77A A111U | -6.13
14 | C20G G113C | -1.32
15 | G63A U96G U112A A118G | -1.58
16 | C53U U78C | -0.767
17 | A6C G45A | -2.73
18 | A5U C40A C115G G120A | -3.72
19 | C28G G63A C73U | -3.78
20 | G10A G71C | -0.717
21 | U21A U87G | -0.0526
22 | C15A G47U G61U G110A | -3.43
23 | C20G U112C | -2.48
24 | C72G U81A C82G G128C | -4.54

Row | Variant | polymerase ribozyme fitness (log ratio)
25 | C115U G120A A121C | -2.04
26 | A46U A74U A91G | -3.52
27 | C8G C12G G60U G93A | -0.276
28 | G110C C123U | -4.69
29 | C40A G60A G113U G122C | -4.23
30 | C15U C124G | -0.245
31 | C49U A50U C82U | -1.71
32 | U78C G113A | -1.36
33 | C40U G48A C53A G113C | -2.73
34 | A24G U55G C64U | -1.64
35 | C11G G113A A119U G120A | -0.282
36 | A100U G110U | -2.67
37 | G39C C101A | -1.69
38 | A43G G52C C53A G61A U96C | -2.66
39 | C31U A43C | -6.22
40 | C40U C53A | 0.0513
41 | G60A C80A C88A | -3.61
42 | C12A G113C | -2.64
43 | G39U C70U A103C C114U A119U G120A U130A | -5.71
44 | C70U G128C | -2.54
45 | U7G C79U C80U | -1.81
46 | C8A G19C U59A C82A | -3.12
47 | U7C G71A G127U U133G | -1.83
48 | C3A G69A | -3.74

Row | Variant | polymerase ribozyme fitness (log ratio)
49 | A2G C104U | 0.0974
50 | C28U U96G | -2.43
51 | G42A C82U | -1.95
52 | U7G C56A G57U C89A | -0.967
53 | C31U U59C G120U G127C | -5.99
54 | C70U A95G | -0.166
55 | A6G A74U C76U C115A | -0.102
56 | G57U G77C U130G | -2.56
57 | U21A A37C U38G U112G G122C C124U G135A | -1.11
58 | U106G G120C | -0.678
59 | C15G C101A | -3.78
60 | C49U G69U G117U | -2.25
61 | C40A A105G | -4.43
62 | C72G G127A | -1.26
63 | A18G U78A C86A C97A C102U U109A G113C | -6.86
64 | C94A C115U | -2.44
65 | U14G U129G | -3.21
66 | G17A G61U | -2.6
67 | U9A C13U G63A C88A G113C U129G U134G | -3.06
68 | G25C G61C U92G G117U | -6.32
69 | A43C G61A C85G G113A C115U | -5.36
70 | A5U A27U | -3.65
71 | G44C G135U | -1.88
72 | C56A A83G A84C G135C | -0.872

Row | Variant | polymerase ribozyme fitness (log ratio)
73 | U78C C88U A121C | 1.67
74 | C22U G45U C72A | -4.82
75 | G57A U87C | -1.14
76 | C72G G113C C114U C115G C124U | -4.29
77 | G61A C88U A105G | -2.9
78 | C49G C62G C114A G117C | -7.8
79 | C22A U87A | -4.86
80 | C20G A43G G48A C72G U106A C123A U129A | -6.54
81 | G60C A74U C88G | -2.91
82 | G63U G77U | -3.54
83 | C4U U130A | -1.49
84 | G10U G47C C64U | -1.28
85 | U7C U78G C82G C99A U112G G128U | -5.9
86 | C70G A83C | -2.96
87 | A16C C62G A74G C114U | -5.78
88 | G10U G42U G69U C115A | -1.2
89 | G39U C62U | -1.71
90 | G44C C88U | -0.458
91 | G69A C101A U132A | -3.65
92 | C70U U78G | -0.747
93 | C12A A24U U32A C99A U116C U130G | -7.85
94 | U7G C94G | -0.426
95 | A41G C56A A75U G117U | -3.99
96 | G44U A46C | -2.3

Row | Variant | polymerase ribozyme fitness (log ratio)
97 | C56G C88U C94A G110U | -4.78
98 | C12U G19C C56U U81G C104A G117C | -5.9
99 | G10C U78C | -1.63
100 | G51U U112A A118U | -3.5
101 | C15U G42C G71U | -3.24
102 | A2U A16U U32A A41C G69U C89A | -7.42
103 | C8G G17C C53U | -2.9
104 | G10A U21G G52A G69C U78G C115G U133G | -7.23
105 | A43G A84U | -1.9
106 | C62G U106A A108G C115A C123A | -5.43
107 | G63U A74U | -4.43
108 | G60U U78C | -0.915
109 | G45C G51A G63A U78A C123G | -4.51
110 | C88U G93A A108G C115U A118U G135C | -4.45
111 | A16C G44C C49U | -3.94
112 | C34U A41G C53U G69U | -2.44
113 | G52U G60U C73U U96G A121G | -0.386
114 | G10U A26U G45A | -2.84
115 | A2U A5G U9G C13U C64U G122A | -1.31
116 | U7G C70U A83C C97A | -5.37
117 | U21G U87C C114U | -1.41
118 | C64U A95G G117C | -4.22
119 | U9C G52A C104U A121U | 2.1
120 | G45C U87C | -0.513

Row | Variant | polymerase ribozyme fitness (log ratio)
121 | C8A U14C G93U | -0.798
122 | G52U C88G A118U | -0.0981
123 | G77U U131A | -0.157
124 | C49A A90U | -0.956
125 | G10C A46G C124U | -0.222
126 | C88A C101U A111U | -3.57
127 | G17C A29U U125G | -5.1
128 | C80U U133G | -0.514
129 | G44U G63C U78A | -0.651
130 | C28U C79U | -1.61
131 | C72G C114A U130C U133G | -1.37
132 | G19U C56U C89G | -3.6
133 | A37U C53U G58C A66U C76G U106C | -2.44
134 | A5G C12A G45A U78C C88A | -0.938
135 | U32C C53A C101A G120A | -0.18
136 | C49G C80U | -3.42
137 | C4G C13U U33G G39U G44A C82U U112A | -4.58
138 | G44U G51A | -5.35
139 | C64U C101G | -1.69
140 | C11G G71A | -0.503
141 | C11U C22U C70U C99U U112A | -6.17
142 | G10A U14A C56G | -3.83
143 | C20U G47U C82G | -4.12
144 | U96G C114U | -2.28

Row | Variant | polymerase ribozyme fitness (log ratio)
145 | A37U G44A A83C G120C U130G | -1.38
146 | U81G C124A G128C U130G | -2.26
147 | U96A A121C U126A | -0.501
148 | A26C C34U G36U C72A | -6.66
149 | C11A G71C G113A | -2.46
150 | G10U A37U G52U C56U C73G U116G | -4.51
151 | G69U A118G | -0.0784
152 | C12U C13U A50U U78G U131C | -0.743
153 | C4U A27U C72U | -2.49
154 | C8G G63U G77C U129C | -2.81
155 | G61A C80A | -3.47
156 | C11A C79U | -1.59
157 | C98U U106G U133G | -2.9
158 | C8A G35A C89U G117C | -6.27
159 | G36U C56U C104A | -2.85
160 | G61C C85U | -1.81
161 | A6U U106A | -0.188
162 | C11U G17A U106A | -3.29
163 | C12G U30C A41U G48A | -5.05
164 | A18C C56G U59A A100U A111G G127C | -3.88
165 | C40G A100C | -2.29
166 | C20A G127A | -3.23
167 | C70U C80A A95G A111G | -5.34
